According to patent publication US20260327578A1, “TRANSGLUTAMINASES AND USES THEREOF” (CURIE CO. INC., priority 2023, published 2026):
Residue numbers refer to the chain shown, from its start. Names and notes keep the numbering of the source.

B1: A4: Tgase variant S2P Q50S Q74A K91H Q124L K151R K152R N282Q S284A H289I relative to SEQ ID NO: 2 (protein, UniProt P81453 77-407, looked up, variant S2P Q50S Q74A K91H Q124L K151R K152R N282Q S284A H289I)
Protein-glutamine …: DPDDRVTPPAEPLDRMPDPYRPSYGRAETVVNNYIRKWQQVYSHRDGRKSQMTEEQREWLSYGCVGVTWVNSGAYPTNRLAFASFDEDRFHNELKNGRPRSGETRAEFEGRVAKESFDEEKGFLRAREVASVMNRALENAHDESAYLDNLRRELANGNDALRNEDARSPFYSALRNTPSFKERNGGNHDPSRMKAVIYSKHFWSGQDRSSSADKRKYGDPDAFRPAPGTGLVDMSRDRNIPRSPTSPGEGFVNFDYGWFGAQTEADADKTVWTHGNHYHAPQGALGAMIVYESKFRNWSEGYSDFDRGAYVITFIPKSWNTAPDKVKQGWP
B2: A17: Tgase variant S2P D14N Q50S Q74A K91H Q124L K151R K152R N282M G283A relative to SEQ ID NO: 2 (protein, UniProt P81453 77-407, looked up, variant S2P D14N Q50S Q74A K91H Q124L K151R K152R N282M G283A)
Protein-glutamine …: B1 Protein-glutamine … with D14N, Q282M, G283A, A284S, I289H
B3: A15: Tgase variant S2P Q50S Q74A K91H K95E Q124L K151R K152R N282M G283A relative to SEQ ID NO: 2 (protein, UniProt P81453 77-407, looked up, variant S2P Q50S Q74A K91H K95E Q124L K151R K152R N282M G283A)
Protein-glutamine …: B1 Protein-glutamine … with K95E, Q282M, G283A, A284S, I289H
B4: A10: Tgase variant S2P A10T Q50S Q74A K91H Q124L S131I K151R K152R N282M G283A S299V relative to SEQ ID NO: 2 (protein, UniProt P81453 77-407, looked up, variant S2P A10T Q50S Q74A K91H Q124L S131I K151R K152R N282M G283A S299V)
Protein-glutamine …: B1 Protein-glutamine … with A10T, S131I, Q282M, G283A, A284S, I289H, S299V
B5: A2: Tgase variant S2P Q50S Q74A K91H Q124L K151R K152R N282E S284A relative to SEQ ID NO: 2 (protein, UniProt P81453 77-407, looked up, variant S2P Q50S Q74A K91H Q124L K151R K152R N282E S284A)
Protein-glutamine …: B1 Protein-glutamine … with Q282E, I289H
B6: A5: Tgase variant S2P Q50S Q74A K91H Q124L K151R K152R N282D S284A H289I S299E relative to SEQ ID NO: 2 (protein, UniProt P81453 77-407, looked up, variant S2P Q50S Q74A K91H Q124L K151R K152R N282D S284A H289I S299E)
Protein-glutamine …: B1 Protein-glutamine … with Q282D, S299E
B7: A11: Tgase variant S2P D14W Q50S Q74A K91H Q124L S131I K151R K152R N282M G283A S299V relative to SEQ ID NO: 2 (protein, UniProt P81453 77-407, looked up, variant S2P D14W Q50S Q74A K91H Q124L S131I K151R K152R N282M G283A S299V)
Protein-glutamine …: B1 Protein-glutamine … with D14W, S131I, Q282M, G283A, A284S, I289H, S299V
B8: A1: Tgase variant S2P Q50S Q74A K91H Q124L K151R K152R N282R relative to SEQ ID NO: 2 (protein, UniProt P81453 77-407, looked up, variant S2P Q50S Q74A K91H Q124L K151R K152R N282R)
Protein-glutamine …: B1 Protein-glutamine … with Q282R, A284S, I289H
B9: A12: Tgase variant S2P R15T Q50S Q74A K91H Q124L K151R K152R N282M G283A H289I relative to SEQ ID NO: 2 (protein, UniProt P81453 77-407, looked up, variant S2P R15T Q50S Q74A K91H Q124L K151R K152R N282M G283A H289I)
Protein-glutamine …: B1 Protein-glutamine … with R15T, Q282M, G283A, A284S
B10: A13: Tgase variant S2P Q50S Q51E Q74A K91H Q124L K151R K152R F170I N282M G283A H289I S299V relative to SEQ ID NO: 2 (protein, UniProt P81453 77-407, looked up, variant S2P Q50S Q51E Q74A K91H Q124L K151R K152R F170I N282M G283A H289I S299V)
Protein-glutamine …: B1 Protein-glutamine … with Q51E, F170I, Q282M, G283A, A284S, S299V
B11: A8: Tgase variant S2P D14W Q50S Q74A K91H Q124L K151R K152R N282M G283A S299A relative to SEQ ID NO: 2 (protein, UniProt P81453 77-407, looked up, variant S2P D14W Q50S Q74A K91H Q124L K151R K152R N282M G283A S299A)
Protein-glutamine …: B1 Protein-glutamine … with D14W, Q282M, G283A, A284S, I289H, S299A
B12: A14: Tgase variant S2P Q50S Q51E Q74A K91H Q124L Y146F K151R K152R N282M G283A H289I S299V relative to SEQ ID NO: 2 (protein, UniProt P81453 77-407, looked up, variant S2P Q50S Q51E Q74A K91H Q124L Y146F K151R K152R N282M G283A H289I S299V)
Protein-glutamine …: B1 Protein-glutamine … with Q51E, Y146F, Q282M, G283A, A284S, S299V
B13: A16: Tgase variant S2P D18T Q50S Q74A K91H Q124L S131R V132L K151R K152R N282M G283A relative to SEQ ID NO: 2 (protein, UniProt P81453 77-407, looked up, variant S2P D18T Q50S Q74A K91H Q124L S131R V132L K151R K152R N282M G283A)
Protein-glutamine …: B1 Protein-glutamine … with D18T, S131R, V132L, Q282M, G283A, A284S, I289H
B14: A18: Tgase variant S2P Q50S Q51A Q74A K91H Q124L K151R K152R N282M G283A H289I relative to SEQ ID NO: 2 (protein, UniProt P81453 77-407, looked up, variant S2P Q50S Q51A Q74A K91H Q124L K151R K152R N282M G283A H289I)
Protein-glutamine …: B1 Protein-glutamine … with Q51A, Q282M, G283A, A284S
B15: A7: Tgase variant S2P Q50S Q74A K91H Q124L K151R K152R N282M G283A S299V relative to SEQ ID NO: 2 (protein, UniProt P81453 77-407, looked up, variant S2P Q50S Q74A K91H Q124L K151R K152R N282M G283A S299V)
Protein-glutamine …: B1 Protein-glutamine … with Q282M, G283A, A284S, I289H, S299V
B16: A6: Tgase variant S2P D14W Q50S Q74A K91H Q124L K151R K152R A166W N282M G283A S299V relative to SEQ ID NO: 2 (protein, UniProt P81453 77-407, looked up, variant S2P D14W Q50S Q74A K91H Q124L K151R K152R A166W N282M G283A S299V)
Protein-glutamine …: B1 Protein-glutamine … with D14W, A166W, Q282M, G283A, A284S, I289H, S299V
B17: A9: Tgase variant S2P Q50S Q74A K91H K95E Q124L K151R K152R N282M G283A S299V relative to SEQ ID NO: 2 (protein, UniProt P81453 77-407, looked up, variant S2P Q50S Q74A K91H K95E Q124L K151R K152R N282M G283A S299V)
Protein-glutamine …: B1 Protein-glutamine … with K95E, Q282M, G283A, A284S, I289H, S299V

What was measured:
N,N-dimethylcasein [1] = experiment: Rate of product formation over 60 minutes (protein functionalization assay); type: biochemical; parameters: key: −: a reduction in activity; +: an improvement between 1.2 and 2-fold; ++: an improvement between 2 and 5-fold; +++: an improvement greater than 5-fold; details: improvement relative to wild-type Tgase (SEQ ID NO: 2); initial rate over 60 min
Experimental: (§1) Enzymatic “productivity” is a measure of product formation or substrate disappearance over time, at a prescribed temperature under specified reaction conditions. It is the measure both the durability and reaction yield of the enzyme variant. In this instance, productivity is defined as total product formed over 24-hours at a constant substrate concentration when the enzyme is the rate limiting factor. The time is defined as 24 hours, which represents approaching or surpassing burnout, denaturation, or self-reaction of the enzyme variant. In other words, variants with higher productivity deliver a higher product yield in 24-hours than variants with lower productivity produce in the same period of time. “Rate” refers to the initial rate for an enzymatic reaction, at a prescribed temperature under specified reaction conditions. The enzyme produces product at an initial rate that is approximately linear for a short period after the start of the reaction. When concentrations of enzyme and substrate are the same across the sample set, initial rates between enzyme variants can be compared. In this instance, the linear range for production of product occurs in one hour. Enzyme variants with faster initial rates deliver a higher product yield in one hour than variants with slower initial rates produce at the same time-period. In some cases, improvements to initial rates also deliver a more productive variant. In some cases, improvements to initial rates result in faster decay of the enzyme variant reducing overall enzymatic productivity. Productivity and rate may be assessed as described in Example 2.
(§2) Table 6 depicts variants of Streptomyces mobaraensis Tgase and improvement to productivity and/or rate relative to wild-type Tgase (SEQ ID NO. 2) as determined in Example 3. Numbering of amino acid positions is in reference to the mature S. mobaraensis Tgase sequence depicted in SEQ ID NO. 2. A “−” indicates a reduction in activity. A “+” indicates an improvement between 1.2 and 2-fold. A “++” indicates an improvement between 2 and 5-fold. A “+++” indicates an improvement greater than 5-fold.
Rate was assessed by measuring the rate of product formation over 60 minutes of incubation using a kinetic method to take scans every 60 seconds to determine product formation, using reaction conditions as described in Example 4B. The enzyme produces product at an initial rate that is approximately linear for the first one hour of the reaction. The concentrations of enzyme and substrate are the same across the sample set for each enzyme variant. Enzyme variants with faster initial rates deliver a higher product yield in one hour than variants with slower initial rates produce at the same time-period.
(§3) Protein functionalization by Tgase variants was determined by the fluorogenic labeling of casein using monodansylcadaverine (e.g., a commercially available kit such as the Transglutaminase Fluorogenic Activity Assay Kit, T036, Zedira, Germany). Tgase activity was monitored by measuring fluorescence (excitation wavelength 332 nm; emission wavelength 500 nm) using a BioTek Synergy H1 microplate reader. Transglutaminase-catalyzed covalent coupling (crosslinking) of monodansylcadaverine with N,N-dimethylcasein produces a product that causes a shift in intensity and wavelength of fluorescence of the dansyl group now linked to the casein. The relative transglutaminase activity is shown by increase of fluorescence intensity over time. Enzyme variant loading was optimized based on expression levels, ensuring enzyme was the rate limiting factor. Briefly, cell-free reactions (set up as described in Example 2A) were first diluted 10-fold using phosphate buffer, pH 7.4, and a 5 microliter aliquot was analyzed.

N,N-dimethylcasein [2] = experiment: Productivity: total product formed after 24 hours (protein functionalization assay); type: biochemical; parameters: key: −: a reduction in activity; +: an improvement between 1.2 and 2-fold; ++: an improvement between 2 and 5-fold; +++: an improvement greater than 5-fold; details: improvement relative to wild-type Tgase (SEQ ID NO: 2); total product after 24 h
Experimental: as §1, §2
To evaluate productivity, total product formed was measured after 24-hours of incubation, using the assay described in Example 4B. The time is defined as 24 hours which represents approaching or surpassing burnout, denaturation, or self-reaction of the enzyme variant.
as §3

Row | Molecule | Rate (N,N-dimethylcasein [1]) | Productivity (N,N-dimethylcasein [2])
1 | B1 | − | + (an improvement between 1.2 and 2-fold)
2 | B2 | + (an improvement between 1.2 and 2-fold) | −
3 | B3 | + (an improvement between 1.2 and 2-fold) | −
4 | B4 | + (an improvement between 1.2 and 2-fold) | + (an improvement between 1.2 and 2-fold)
5 | B5 | + (an improvement between 1.2 and 2-fold) | −
6 | B6 | − | + (an improvement between 1.2 and 2-fold)
7 | B7 | + (an improvement between 1.2 and 2-fold) | + (an improvement between 1.2 and 2-fold)
8 | B8 | − | + (an improvement between 1.2 and 2-fold)
9 | B9 | + (an improvement between 1.2 and 2-fold) | + (an improvement between 1.2 and 2-fold)
10 | B10 | + (an improvement between 1.2 and 2-fold) | + (an improvement between 1.2 and 2-fold)
11 | B11 | ++ (an improvement between 2 and 5-fold) | + (an improvement between 1.2 and 2-fold)
12 | B12 | − | + (an improvement between 1.2 and 2-fold)
13 | B13 | ++ (an improvement between 2 and 5-fold) | −
14 | B14 | + (an improvement between 1.2 and 2-fold) | −
15 | B15 | + (an improvement between 1.2 and 2-fold) | + (an improvement between 1.2 and 2-fold)
16 | B16 | +++ (an improvement greater than 5-fold) | ++ (an improvement between 2 and 5-fold)
17 | B17 | + (an improvement between 1.2 and 2-fold) | + (an improvement between 1.2 and 2-fold)
